Reference: article PMC8591539

Legend:
[1] = biological target: CRL4^DCAF1 (FL) (CUL4A-RBX1-DDB1-DCAF1), unneddylated (human) (UniProt Q13619); test: cryo-EM structure
[2] = biological target: CRL4^DCAF1 (FL) (CUL4A-RBX1-DDB1-DCAF1), unneddylated (human) (UniProt Q13619); test: SEC-MALS
[3] = biological target: CRL4^DCAF1 (FL) (R1247A) mutant (human) (UniProt Q13619); test: SEC-MALS
[4] = biological target: CRL4^DCAF1 (FL)-VPR complex (human | HIV-1) (UniProt Q13619); test: SEC-MALS
[5] = biological target: CRL4^DCAF1 (FL)-VPR-UNG2 complex (human | HIV-1 | not stated) (UniProt Q13619); test: SEC-MALS
[6] = biological target: CRL4^DCAF1(FL)-MERLIN complex (UniProt Q13619); test: SEC-MALS
[7] = biological target: DDB1-DCAF1 (FL) sub-complex (human) (UniProt Q16531); test: SEC-MALS

Chain of CRL4^DCAF1 (FL) (CUL4A-RBX1-DDB1-DCAF1), unneddylated (Q13619 whole entry): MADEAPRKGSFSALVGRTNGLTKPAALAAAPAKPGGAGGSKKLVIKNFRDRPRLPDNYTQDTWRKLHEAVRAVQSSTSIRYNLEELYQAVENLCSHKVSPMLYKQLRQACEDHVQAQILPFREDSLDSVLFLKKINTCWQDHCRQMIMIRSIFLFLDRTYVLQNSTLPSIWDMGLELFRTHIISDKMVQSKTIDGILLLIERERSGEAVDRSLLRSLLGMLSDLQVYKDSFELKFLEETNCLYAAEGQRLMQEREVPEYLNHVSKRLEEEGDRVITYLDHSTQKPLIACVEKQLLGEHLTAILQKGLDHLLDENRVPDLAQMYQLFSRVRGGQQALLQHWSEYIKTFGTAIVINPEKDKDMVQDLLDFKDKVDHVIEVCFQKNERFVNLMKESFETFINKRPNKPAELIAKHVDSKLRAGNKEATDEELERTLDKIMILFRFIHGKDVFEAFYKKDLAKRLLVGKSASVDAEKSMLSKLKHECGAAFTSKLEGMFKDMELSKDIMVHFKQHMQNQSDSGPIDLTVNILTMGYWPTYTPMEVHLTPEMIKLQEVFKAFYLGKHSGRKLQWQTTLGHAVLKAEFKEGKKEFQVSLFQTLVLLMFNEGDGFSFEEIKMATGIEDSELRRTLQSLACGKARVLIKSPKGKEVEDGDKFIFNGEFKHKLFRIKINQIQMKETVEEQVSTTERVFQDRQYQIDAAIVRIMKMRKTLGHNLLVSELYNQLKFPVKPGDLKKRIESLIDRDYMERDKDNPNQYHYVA
Chain of CRL4^DCAF1 (FL) (CUL4A-RBX1-DDB1-DCAF1), unneddylated (P62877 whole entry): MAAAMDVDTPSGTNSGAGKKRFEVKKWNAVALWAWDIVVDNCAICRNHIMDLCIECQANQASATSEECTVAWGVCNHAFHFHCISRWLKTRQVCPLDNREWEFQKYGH
Chain of CRL4^DCAF1 (FL) (CUL4A-RBX1-DDB1-DCAF1), unneddylated (Q16531 whole entry): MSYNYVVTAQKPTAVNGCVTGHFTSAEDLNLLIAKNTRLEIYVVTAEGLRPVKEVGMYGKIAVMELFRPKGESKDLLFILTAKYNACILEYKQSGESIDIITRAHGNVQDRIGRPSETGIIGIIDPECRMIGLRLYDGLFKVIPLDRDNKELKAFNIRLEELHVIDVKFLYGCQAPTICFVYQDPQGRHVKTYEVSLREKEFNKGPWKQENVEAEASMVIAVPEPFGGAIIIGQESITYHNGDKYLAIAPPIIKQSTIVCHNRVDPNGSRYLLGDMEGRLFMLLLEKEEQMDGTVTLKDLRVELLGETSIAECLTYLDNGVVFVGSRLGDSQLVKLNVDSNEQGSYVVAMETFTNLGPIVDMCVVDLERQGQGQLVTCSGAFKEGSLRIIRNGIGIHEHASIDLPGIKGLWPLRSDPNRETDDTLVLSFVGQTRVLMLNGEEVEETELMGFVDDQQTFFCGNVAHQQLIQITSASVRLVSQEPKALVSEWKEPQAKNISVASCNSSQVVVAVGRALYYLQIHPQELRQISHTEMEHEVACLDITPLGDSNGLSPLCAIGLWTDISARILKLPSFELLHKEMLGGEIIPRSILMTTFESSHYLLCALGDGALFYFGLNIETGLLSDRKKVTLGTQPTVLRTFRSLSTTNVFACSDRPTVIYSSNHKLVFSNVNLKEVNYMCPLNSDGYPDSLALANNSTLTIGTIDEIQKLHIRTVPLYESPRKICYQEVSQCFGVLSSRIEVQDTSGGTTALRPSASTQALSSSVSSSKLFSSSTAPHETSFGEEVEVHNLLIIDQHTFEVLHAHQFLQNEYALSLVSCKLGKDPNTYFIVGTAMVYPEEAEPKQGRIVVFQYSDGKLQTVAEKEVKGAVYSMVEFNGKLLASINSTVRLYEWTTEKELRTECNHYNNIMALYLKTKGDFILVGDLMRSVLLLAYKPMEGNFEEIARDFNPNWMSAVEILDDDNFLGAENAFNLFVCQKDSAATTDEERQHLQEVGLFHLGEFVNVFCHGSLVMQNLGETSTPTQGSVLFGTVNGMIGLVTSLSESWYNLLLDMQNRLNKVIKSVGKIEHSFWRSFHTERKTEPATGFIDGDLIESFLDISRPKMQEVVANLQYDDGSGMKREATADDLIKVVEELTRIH
Chain of CRL4^DCAF1 (FL) (CUL4A-RBX1-DDB1-DCAF1), unneddylated (Q9Y4B6 whole entry): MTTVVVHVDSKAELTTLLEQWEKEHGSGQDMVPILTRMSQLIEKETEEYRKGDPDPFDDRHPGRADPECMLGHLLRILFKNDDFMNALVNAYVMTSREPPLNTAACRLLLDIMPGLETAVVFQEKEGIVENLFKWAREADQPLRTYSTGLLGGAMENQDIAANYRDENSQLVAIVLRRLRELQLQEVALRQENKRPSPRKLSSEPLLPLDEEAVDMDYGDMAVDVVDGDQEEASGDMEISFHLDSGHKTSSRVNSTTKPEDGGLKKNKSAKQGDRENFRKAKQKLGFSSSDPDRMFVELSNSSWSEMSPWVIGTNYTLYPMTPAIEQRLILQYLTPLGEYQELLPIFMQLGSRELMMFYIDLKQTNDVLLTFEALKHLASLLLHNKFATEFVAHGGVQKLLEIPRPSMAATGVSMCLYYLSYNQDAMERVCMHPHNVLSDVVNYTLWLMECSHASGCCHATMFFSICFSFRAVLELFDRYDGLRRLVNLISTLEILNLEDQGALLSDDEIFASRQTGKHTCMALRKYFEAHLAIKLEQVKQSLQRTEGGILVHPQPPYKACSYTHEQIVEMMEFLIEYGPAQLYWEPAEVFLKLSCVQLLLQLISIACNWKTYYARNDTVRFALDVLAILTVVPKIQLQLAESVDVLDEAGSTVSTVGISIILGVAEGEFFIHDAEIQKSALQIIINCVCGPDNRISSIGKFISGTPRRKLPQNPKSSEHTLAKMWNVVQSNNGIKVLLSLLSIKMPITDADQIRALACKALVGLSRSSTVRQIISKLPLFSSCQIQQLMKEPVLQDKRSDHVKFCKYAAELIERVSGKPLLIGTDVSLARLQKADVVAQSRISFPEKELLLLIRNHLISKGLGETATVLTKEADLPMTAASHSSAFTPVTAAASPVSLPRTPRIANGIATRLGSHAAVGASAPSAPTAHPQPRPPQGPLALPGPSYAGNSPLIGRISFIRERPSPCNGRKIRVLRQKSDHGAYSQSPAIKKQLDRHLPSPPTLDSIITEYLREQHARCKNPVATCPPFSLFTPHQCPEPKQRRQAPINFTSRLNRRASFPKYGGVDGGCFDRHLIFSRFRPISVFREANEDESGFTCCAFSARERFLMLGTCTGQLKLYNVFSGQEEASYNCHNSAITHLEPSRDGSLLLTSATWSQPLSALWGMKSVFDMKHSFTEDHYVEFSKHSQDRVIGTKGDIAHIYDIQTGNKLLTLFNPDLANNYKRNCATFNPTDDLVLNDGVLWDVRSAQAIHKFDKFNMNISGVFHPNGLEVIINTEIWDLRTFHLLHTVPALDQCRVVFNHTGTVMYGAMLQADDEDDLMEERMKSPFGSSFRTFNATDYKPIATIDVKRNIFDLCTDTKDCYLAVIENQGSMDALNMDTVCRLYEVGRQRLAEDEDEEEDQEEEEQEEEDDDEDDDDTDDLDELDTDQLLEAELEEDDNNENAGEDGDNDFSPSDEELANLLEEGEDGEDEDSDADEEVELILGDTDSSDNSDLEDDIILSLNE

## CRL4^DCAF1 (FL) (CUL4A-RBX1-DDB1-DCAF1), unneddylated (from UniProt Q13619;P62877;Q16531;Q9Y4B6) (complex)
[1]
  stoichiometry N: 4
[2]
  stoichiometry N: 4

## CRL4^DCAF1 (FL) (R1247A) mutant (from UniProt Q13619;P62877;Q16531;Q9Y4B6) (complex)
[3]
  stoichiometry N: 2

## CRL4^DCAF1 (FL)-VPR complex (from UniProt Q13619;P62877;Q16531;Q9Y4B6;P12520)
[4]
  stoichiometry N: 4

## CRL4^DCAF1 (FL)-VPR-UNG2 complex (from UniProt Q13619;P62877;Q16531;Q9Y4B6;P12520;P13051-1)
[5]
  stoichiometry N: 2

## CRL4^DCAF1(FL)-MERLIN complex (from UniProt Q13619;P62877;Q16531;Q9Y4B6;P35240)
[6]
  stoichiometry N: 4

## DDB1-DCAF1 (FL) sub-complex (from UniProt Q16531;Q9Y4B6)
[7]
  stoichiometry N: 2
